Test results as given in patent US20250026813A1 (published 2025).

B1: YANG-1102 (antibody, V domains shown)
VH: QVQLQESGPGLVKPSGTLSLTCAVSGGSISTTNWWSWVRQSPGRGLEWIGEIFHIGYTNYNPSLKSRVTISVDKSKNQFSLKLNSVTVADTAVYYCARRVVMDTAMAHFDCWGQGTLVTVSS
VL: QSVLTQPPSVSGAPGQRVTISCTGSSSNIGAGYDVHWYQHLPGTAPKLLIYININRPSGVPDRFSGSKSGTSASLVIAGLQAEDGADYYCQSYDSSLSGWVFGGGTRLTVL
B2: YANG-1119 (antibody, V domains shown)
VH: EVQLVESGGGLVKPGGSLRLSCAASGFTFSSYSMNWVRQAPGKGLEWVSSISTGSSYIFYADSVKGRFTISRDNAKNSLYLQMNSLRAEDTAVYYCAKTGDLPFFDYWGQGTLVTVSS
VL: QSALTQPASVSGSPGQSITISCTGTSSDVGRYNYVSWYQQHPGKAPKLMIYEVSNRPSGVSNRFSGSKSGNTASLTISGLQAEDEADYYCSSYTSSSTMVFGGGTKLTVL
B3: YANG-1114 (antibody, V domains shown)
VH: EVHLVESVGGLVKPGGSLRLSCAASGFTFSSYSMNWVRQAPGKGLEWVSSISTGSSYIFYADSVKGRFTISRDNAKNSLYLQMNSLRAEDTAVYYCAKTGDLPFFDYWGQGTLVTVSS
VL: QSALTQPASVSGSPGQSITISCTGTSSDVGRYNYVSWYQQHPGKAPKLMIYEVSNRPSGVSNRFSGSKSGNTASLTISGLQAEDEADYYCSSYTSSSTMVFGGGTKLTVL
B4: YANG-1113 (antibody, V domains shown)
VH: EVQLVESGGGLVKPGGSLRLSCAASGFTFSSYSMNWVRQAPGKGLEWVSSISTGSSYIFYADSVKGRFTMSRDNAKNSLYLQMNSLRAEDTAVYYCAKTGDLPFFDYWGQGTPVTVSS
VL: QSALTQPASVSGSPGQSITISCTGTSSDVGRYNYVSWYQQHPGKAPKLMIYEVSNRPSGVSNRFSGSKSGNTASLTISGLQAEDEADYYCSSYTSSSTMVFGGGTKLTVL
B5: YANG-1103 (antibody, V domains shown)
VH: EVQMVESGGGLIQPGGSLRLSCAASGLTVSSNYMSWVRQAPGKGLEWVSVIYSGGSTFYADSVKDRFTISRDNSKNTLYLQMNSLRAEDTAVYYCARENWNYVFDCWGQGTLVTVSS
VL: DIQLTQSPSFLSASVGDRVTITCWASQGISSYLAWYQQKPGKAPKLLIYAASTLQSGVPSRFSGSGSGTEFTLTISSLQPEDFATYYCQQLNSHPIIFGQGTRLEIK
B6: YANG-1105 (antibody, V domains shown)
VH: EVQVVESGGGLIQPGGSLRLSCAASGITVSRNYMNWVRQAPGKGLEWVSVIYSGGSTFYADSVKGRFTISRDNSKNTLYLQMNSLRADDTGVYYCAREGYGMDVWGQGTTVTVSS
VL: DIQLTQSPSFLSASVGDRVTITCWASQGISSYLAWYQQKPGKAPKLLIYSASTLQSGVPSRFSGSGSGTEFTLTINSLQPEDFATYYCQQLNSHPCSFGQGTKLEIK
B7: YANG-1109 (antibody, V domains shown)
VH: EVQLVESGGGLIQPGGSLRLSCGVSGLTVSRNYMNWVRQAPGKGLEWVSVIYSGGSTFYADSVKGRFTISRDNSKNTLYLQMISLRAEDSGVYYCAREGFGMDVWGQGTTVTVSS
VL: DIQLTQSPSFLSASVGDRVTITCWASQGISNYLAWYQQKPGKAPKLLIYSASTLQSGVPSRFSGSGSGTEFTLTISNLQPADIATYYCQLLNSHPCSFGQGTKLEIK
B8: YANG-1107 (antibody, V domains shown)
VH: EVQMVESGGGLIQSGGSLRLSCAASGLSVSSNYMSWVRQAPGKGLEWVAVIYSGGSIFYADSVKDRFTISRDNSKNTLYLQMNSLRAEDTAVYYCARENWNYVFDCWGQGTLVTVSS
VL: DIQLTQSPSFLSASVGDRVTITCWASQGISTYLAWYQQKPGKAPKLLIYAASTLQSGVPSRFSGSGSGTEFTLTISSLQPEDFATYYCQQLSSHPIIFGQGTRLEIK
B9: YANG-1110 (antibody, V domains shown)
VH: QVQLAESGGGVVQPGRSLRLSCVVSGFTFSNYGMHWVRQAPGKGLEWVVFISNDGSNEDFVDSVKGRFTISRDNSKNTLYLQMNSLRAEDTAVYYCAKGGYFYGSGNYYYYYGMDVWGQGTTVTVSS
VL: QPVLTQSSSASASLGSSVKLTCTLSSVHSNHIIAWHQQQPGKAPRYLMKLEGSGRYSKGSGVPDRFSGSSSEADRYLTISNLQSEDEADYYCETWDNNTYVFGSGTKVTVL
B10: YANG-1101 (antibody, V domains shown)
VH: QLQLQESGPGLVKPSETLSLTCTVSGGSISSSSYYWGWIRQPPGKGLEWIGSIYYSGSIYYNPSLKSRVTISVDTSKNQFSLKLSSVTAADTAVYYCASWFGEFLKADAFDIWGQGTMVTVSS
VL: QSALTQPASVSGSPGQSITISCTGTSSDVGGYSYVSWYQQHPGKAPKLMIYDVSKRPSGVSNRFSGSKSGNTASLTISGLQAEDEADYYCCSYAGGSTFVVFGGGTKLTVL
B11: YANG-1106 (antibody, V domains shown)
VH: EVQLVESGGGLIQPGGSLRLSCAASEFIVSRNYMSWVRQAPGKGLEWVSVIYSGGSTFYADSVRGRFTISRDNSKNTLYLQMNSLRAEDTAVYYCARDYGDQYFDYWGQGTLVTVSS
VL: EMVMTQSPATLSVSPGEKATLSCRASQTVSTNLAWYQQKPGQSPRLLIYGASTRATGIPARFSGSGSGTEFTLTISSLQSEDFAIYYCQQYVDWPRTFGQGTTVEIK
B12: YANG-1112 (antibody, V domains shown)
VH: QITLKESGPTLVKPTQTLTLTCTFSGFSLSTGGVAVGWIRQPPGKALEWLAIIYWDDDKRYSPSLKSRLTITKDTSKNQVVLTMTNMDPVDTATYYCAHWGKDSFDIWGQGTMVTVSS
VL: SYELTQPPSVSVSPGQTARITCSGDALPRKYAYWYQQKSGQAPVLVIYEDNNRPSGIPERFSGSSSGTTATLTVSGAQVEDEADYYCYSTDTSGYVVFGGGTKLTVL
B13: YANG-1111 (antibody, V domains shown)
VH: EVQLVESGGGLIQPGGSLRLSCAASGFTFSSYSINWVRQAPGKGLEWVSFISGSSTTIYYADSVKGRFTISRDSAKNSLYLQMNSLRDEDTAVYYCARGLRSSIAPRPDYFDSWGQGILVTVSS
VL: SYVLTQPPSVSVAPGKTARITCGGNNIGSKGVHWYQQKPGQAPVLVIYYDSDRPSGIPERFSGSNSGNTATLTISRVEAGDEADYSCQVWDSSSDHPVFGGGTKLTVQ
B14: YANG-1108 (antibody, V domains shown)
VH: QVQLVESGGGVVHPGRSLRLSCVVSGFTFSGYGMYWVRQAPGKGLEWVAVISKDGSDKYYADSVKGRFTISRDNSKNTLNLQMNSLRAEDTAVFYCAKERTFQGSGSYYNNYFYYGMDVWGQGTTVTVSS
VL: AIQLTQSPSSLSASVGDRVTITCRASQGISSALAWYQQKPGKAPNLLIYDASSLESGVPSRFSGSGFGTDFTLTINSLQPEDFASYYCQQFKSYPLTFGGGTKVEIK
B15: YANG-2203 (antibody, V domains shown)
VH: QVQLVQSGAEVKQPGASVKVSCRASGYALTSFYVHWVRQAPGQGLEWMGIIKPSGGDTIYAQNLQGRVTMTRDTSTNTFYVELSSLRSEDTALYYCAISGNTRAFEIWGQGTMVTVSL
VL: QSVLTQPPSVSAAPGQKVTISCSGSSSNIGNNFVSWYQQLPGMVPKLLIYANNKRPSGIPDRFSGSRSGTSATLGITGLQTGDEADYYCGTWDSSRSAVLFGGGTKMTVL
B16: YANG-2204 (antibody, V domains shown)
VH: QMQLVQSGAEVKKPGASVKFSCKTSGYTFTNYYMVWVRQAPGQGLEWMGIIKPSGGNTIYAQKFQGRVTMTRDTSTNTVYMDLTSLRSEDTAVYYCARTGDRAFDVWGQGTMVTVSS
VL: QSVLTQPPSVSAAPGQKVTISCSGSSSNIGNNYVSWYQQLPGTAPKLLIYDNNKRPSGIPDRFSGSKSGTSATLGITGLQTGDEADYYCGTWDSSLGAGVFGGGTKLTVL
B17: YANG-2112 (antibody, V domains shown)
VH: QVQLVQSGAEVKKPGASVKVSCKVSGFTLTHLSIHWVRQAPGRGLEWMGGFDPVDGQTVYAQNFQGRVTMTEDTSTDTANMDLNNLKSEDTAVYYCATGVVVPAAPYYYSSGMDVWGQGTTVTVSS
VL: QSVLTQPPSTSGTPGQRVTISCSGSSSNIAKNYVYWYQQLPGTAPKLLIYRTNQRPSGVPDRFSGSRSGTSASLAISGLRSEDEATYYCATWDDTLSVIFGGGTNLTVL
B18: YANG-2202 (antibody, V domains shown)
VH: EVQLVESGGGLVQPGGSLRLSCAASGFTFSSFAMSWVRQAPGKGLEWVAAFSGRGAITHYTDSVKGRFTISRDNSKNTLYLQMNSLRAEDTAVYYCATYNWNPYYFDFWGQGTLVTVSS
VL: DIQMTQSPSSVSASIGDRVTITCRASQDINIWLAWYQQKPGKAPNLLIFDTSNLQSGVPSRFSGSGSGSDFTLTISSLQPEDFATYYCQQGNSFPRTFGQGTRLEIK
B19: YANG-2111 (antibody, V domains shown)
VH: GVQLVESGGGLVQPGRSLRLSCAASGFTFDDYALHWVRQVPGKGLEWVSSISWNSDDLGYADSVEGRFTISRDNAKNSLYLQMSSLRTEDTALYYCVKDTRAHYDILAGYRGLDSWGQGTLVTVSS
VL: DIVMTQSPLSLPVTPGEPASISCRSTQSLLHSNGYNFLDWYLQKPGQSPQLLIYLGSNRASGVPDRFSGSGSGTDFSLKISRVEAEDIGIYYCIQGLQTPITFGQGTRLEIK
B20: YANG-2201 (antibody, V domains shown)
VH: QEQLVESGGGVVQPGMSLRLSCAASGFTFSNYGMHWVRQSPGKGLEWVTFISYDGNNEYYVDSVKGRFTISRDNSKNTLFLQMNSLRAEDAAVYYCAKDRALNLYYFDSWGPGTLVTVSS
VL: DIVMTQPPLSLPVTPGEPASISCRSSQSLLHNNAYNHLNWYLQKPGQSPQFLIYLGSNRASGVPDRFSGSGSGTDFTLKISRVEAEDVGVYYCMQSLQIPITFGQGTRLEIK

Molecular target: SARS-CoV-2 spike protein bearing furin mutation and truncation in retention sequence, on pseudoviral particles (SARS-CoV-2, UniProt P0DTC2 14-1255)
Assay: cell-based or functional assay

Q: For B1, which “PV neutralisation IC50” value is on record?
A: 0.84 nM

Q: And the “PV neutralization % (Ab 1 ug/mL)” value?
A: 86.9%

Q: B2 was tested. Which “PV neutralisation IC50” value did it give?
A: 0.96 nM

Q: What about the “PV neutralization % (Ab 1 ug/mL)” value of the same binder?
A: 99%

Q: For B3, which “PV neutralization % (Ab 1 ug/mL)” value is on record?
A: 93.2%

Q: With B4 as the binder, how does the “PV neutralization % (Ab 1 ug/mL)” value read?
A: 97.6%

Q: For B5, which “PV neutralisation IC50” value is on record?
A: 0.28 nM

Q: What about the “PV neutralization % (Ab 1 ug/mL)” value of the same binder?
A: 100%

Q: B6 was tested. Which “PV neutralization % (Ab 1 ug/mL)” value did it give?
A: 97.2%

Q: For B7, which “PV neutralisation IC50” value is on record?
A: 1.81 nM

Q: And the “PV neutralization % (Ab 1 ug/mL)” value?
A: 99.4%

Q: Which “PV neutralization % (Ab 1 ug/mL)” value does the source give for B8 here?
A: 99.2%

Q: B9 was tested. Which “PV neutralization % (Ab 1 ug/mL)” value did it give?
A: 99.3%

Q: B10 was tested. Which “PV neutralization % (Ab 1 ug/mL)” value did it give?
A: 98%

Q: With B11 as the binder, how does the “PV neutralization % (Ab 1 ug/mL)” value read?
A: 99.5%

Q: Which “PV neutralisation IC50” value does the source give for B12 here?
A: 0.52 nM

Q: And the “PV neutralization % (Ab 1 ug/mL)” value?
A: 89.2%

Q: What does the source list for B13?
A: PV neutralisation IC50: 1.82 nM; PV neutralization % (Ab 1 ug/mL): 72.7%

Q: How did the “PV neutralization % (Ab 1 ug/mL)” value turn out when B14 was run?
A: 95.2%

Molecular target: SARS-CoV-2 spike protein bearing furin mutation and truncation in retention sequence (on pseudoviral envelope) (SARS-CoV-2, UniProt P0DTC2 14-1273)
Assay: cell-based or functional assay

Q: Which “PV neutralisation IC50” value does the source give for B15 here?
A: 5.45 nM

Q: And the “PV neutralization % (Ab 1 ug/mL)” value?
A: 35.7%

Q: B16 was tested. Which “PV neutralisation IC50” value did it give?
A: 3.3 nM

Q: And the “PV neutralization % (Ab 1 ug/mL)” value?
A: 41%

Q: Which results are given for B17?
A: PV neutralisation IC50: 0.65 nM; PV neutralization % (Ab 1 ug/mL): 88.6%

Q: For B18, which “PV neutralization % (Ab 1 ug/mL)” value is on record?
A: 37.5%

Q: How did the “PV neutralisation IC50” value turn out when B19 was run?
A: 1.33 nM

Q: What about the “PV neutralization % (Ab 1 ug/mL)” value of the same binder?
A: 86.8%

Q: B20 was tested. Which “PV neutralization % (Ab 1 ug/mL)” value did it give?
A: 35.2%
